{"source": "paper PMC9352773", "target": "ScNtx-NT647, fluorescently labeled variant of ScNtx", "assay": "MST; 5 nM ScNtx-NT647 held constant, Torpedo nAChR in asolectin-MSP1E3D1 nanodiscs titrated 0.5 nM to 1 μM; PBS pH 7.4, 0.05% Tween, 20 °C, high MST power, 4 % excitation power, triplicate; apparent affinity", "data": [{"substance": "Torpedo muscle-type nicotinic acetylcholine receptor, native, purified, reconstituted in asolectin-MSP1E3D1 lipidic nanodiscs (from UniProt P02710 25-461; P02714 18-506; P02718 22-522; P02712 25-493) (complex)", "values": [{"measurement": "Kd", "result": 28, "unit": "nM"}]}]}
